Columns and labels:
Experiment in all cases: holdup assay
Parameters in all cases: key: below the threshold = too weak to quantify, mostly under pKd 3.1 to 4
DLG3_2, Q92796 = target: T1, DLG3_2, Q92796
T1 sequence (Q92796 221-321, limits assumed, looked up): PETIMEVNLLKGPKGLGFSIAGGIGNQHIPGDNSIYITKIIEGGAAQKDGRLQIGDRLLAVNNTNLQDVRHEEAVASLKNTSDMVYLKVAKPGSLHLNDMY

DLG4_1, P78352 = target: DLG4_1, P78352
GRIP1_3, Q9Y3R0 = target: T2, GRIP1_3, Q9Y3R0
T2 sequence (Q9Y3R0 247-346, limits assumed, looked up): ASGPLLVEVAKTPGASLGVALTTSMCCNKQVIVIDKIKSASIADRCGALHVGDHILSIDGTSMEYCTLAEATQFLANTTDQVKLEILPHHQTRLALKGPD

RAPGEF6, Q8TEU7 = target: T3, RAPGEF6, Q8TEU7
T3 sequence (Q8TEU7 525-625, limits assumed, looked up): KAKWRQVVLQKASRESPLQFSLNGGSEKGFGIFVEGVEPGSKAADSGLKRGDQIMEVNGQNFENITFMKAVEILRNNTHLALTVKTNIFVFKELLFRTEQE

LRRC7, Q96NW7 = target: T4, LRRC7, Q96NW7
T4 sequence (Q96NW7 1440-1537, limits assumed, looked up): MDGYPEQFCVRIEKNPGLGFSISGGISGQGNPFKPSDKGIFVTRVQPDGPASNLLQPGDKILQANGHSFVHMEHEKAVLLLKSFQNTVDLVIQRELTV

DLG1_2, Q12959 = target: DLG1_2, Q12959
MAGI2_5, Q86UL8 = target: MAGI2_5, Q86UL8
Inadl_4, Q8NI35 = target: Inadl_4, Q8NI35
Inadl_5, Q8NI35 = target: Inadl_5, Q8NI35
MAGI1_2, Q96QZ7 = target: MAGI1_2, Q96QZ7
GOPC, Q9HD26 = target: GOPC, Q9HD26
GRIP1_7, Q9Y3R0 = target: T5, GRIP1_7, Q9Y3R0
T5 sequence (Q9Y3R0 999-1096, limits assumed, looked up): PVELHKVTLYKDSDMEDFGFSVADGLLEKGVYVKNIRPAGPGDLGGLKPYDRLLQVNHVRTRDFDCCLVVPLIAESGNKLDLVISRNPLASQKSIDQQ

MPP7, Q5T2T1 = target: T6, MPP7, Q5T2T1
T6 sequence (Q5T2T1 134-230, limits assumed, looked up): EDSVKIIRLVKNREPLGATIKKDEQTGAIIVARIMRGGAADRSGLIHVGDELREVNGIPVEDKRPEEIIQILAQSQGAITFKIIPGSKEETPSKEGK

GRIP2_3, Q9C0E4 = target: GRIP2_3, Q9C0E4
PCLO, Q9Y6V0 = target: T7, PCLO, Q9Y6V0
T7 sequence (Q9Y6V0 4491-4600, limits assumed, looked up): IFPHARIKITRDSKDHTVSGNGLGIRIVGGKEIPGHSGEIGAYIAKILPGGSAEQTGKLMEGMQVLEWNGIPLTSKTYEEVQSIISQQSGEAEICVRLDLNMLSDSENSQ

TJP2_1, Q9UDY2 = target: TJP2_1, Q9UDY2
Inadl_6, Q8NI35 = target: Inadl_6, Q8NI35
ARHGEF12, Q9NZN5-2 = target: ARHGEF12, Q9NZN5-2
MPDZ_5, O75970 = target: T8, MPDZ_5, O75970
T8 sequence (O75970 695-796, limits assumed, looked up): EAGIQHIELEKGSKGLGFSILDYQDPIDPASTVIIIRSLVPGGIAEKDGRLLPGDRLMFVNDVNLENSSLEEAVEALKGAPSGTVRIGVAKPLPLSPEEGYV

Inadl_9, Q8NI35 = target: Inadl_9, Q8NI35
GORASP2, Q9H8Y8 = target: GORASP2, Q9H8Y8
FRMPD1, Q5SYB0 = target: T9, FRMPD1, Q5SYB0
T9 sequence (Q5SYB0 52-145, limits assumed, looked up): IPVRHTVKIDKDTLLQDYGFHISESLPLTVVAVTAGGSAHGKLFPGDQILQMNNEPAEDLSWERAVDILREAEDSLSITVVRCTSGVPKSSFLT

TJP1_2, Q07157 = target: TJP1_2, Q07157
LAP2, Q96RT1 = target: LAP2, Q96RT1
TJP1_3, Q07157 = target: TJP1_3, Q07157
DLG2_2, Q15700 = target: DLG2_2, Q15700
FRMPD3, Q5JV73 = target: FRMPD3, Q5JV73
PARD3_3, Q8TEW0 = target: PARD3_3, Q8TEW0
[1] = plain residues with an end cap or a label only (N-terminal biotin on a linker: ttds)
[2] = plain residues with an end cap or a label only (N-terminal biotin on a linker: ado-ado, ttds)
[3] = plain residues with an end cap or a label only (N-terminal biotin on a linker: ahx)

Chain of GRIP2_3, Q9C0E4 (Q9C0E4 238-339): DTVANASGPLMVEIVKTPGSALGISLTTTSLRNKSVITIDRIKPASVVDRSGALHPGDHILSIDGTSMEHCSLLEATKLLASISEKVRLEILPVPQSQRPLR
Chain of PARD3_3, Q8TEW0 (Q8TEW0 582-685): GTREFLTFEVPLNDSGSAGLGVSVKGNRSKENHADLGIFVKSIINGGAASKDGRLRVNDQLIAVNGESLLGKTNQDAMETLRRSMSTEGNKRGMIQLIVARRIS
Chain of Inadl_5, Q8NI35 (Q8NI35 673-780): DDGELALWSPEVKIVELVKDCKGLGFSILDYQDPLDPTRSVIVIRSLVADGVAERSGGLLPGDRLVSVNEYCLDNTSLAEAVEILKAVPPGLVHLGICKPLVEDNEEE
Chain of ARHGEF12, Q9NZN5-2 (Q9NZN5 other isoform, or with tags, fused parts or gaps): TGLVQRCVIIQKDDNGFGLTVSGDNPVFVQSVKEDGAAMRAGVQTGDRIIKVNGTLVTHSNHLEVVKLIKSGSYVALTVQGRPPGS
Chain of TJP2_1, Q9UDY2 (Q9UDY2 24-128): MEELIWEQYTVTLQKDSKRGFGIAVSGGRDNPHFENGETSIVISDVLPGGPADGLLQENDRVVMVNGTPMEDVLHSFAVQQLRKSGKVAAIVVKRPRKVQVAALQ
Chain of Inadl_9, Q8NI35 (Q8NI35 1530-1615): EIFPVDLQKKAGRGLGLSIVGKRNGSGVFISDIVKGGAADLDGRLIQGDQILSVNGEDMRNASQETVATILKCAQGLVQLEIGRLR
Chain of DLG1_2, Q12959 (Q12959 314-412): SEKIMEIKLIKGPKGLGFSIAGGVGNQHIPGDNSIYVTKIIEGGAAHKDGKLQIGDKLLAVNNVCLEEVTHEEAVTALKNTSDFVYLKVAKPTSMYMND
Chain of FRMPD3, Q5JV73 (Q5JV73 12-100): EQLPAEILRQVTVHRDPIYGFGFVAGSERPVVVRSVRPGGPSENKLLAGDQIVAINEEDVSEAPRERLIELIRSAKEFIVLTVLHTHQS
Chain of DLG4_1, P78352 (P78352 62-152): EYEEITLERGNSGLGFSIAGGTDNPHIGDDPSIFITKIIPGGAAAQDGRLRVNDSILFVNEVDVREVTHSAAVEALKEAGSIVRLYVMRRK
Chain of MAGI1_2, Q96QZ7 (Q96QZ7 456-580): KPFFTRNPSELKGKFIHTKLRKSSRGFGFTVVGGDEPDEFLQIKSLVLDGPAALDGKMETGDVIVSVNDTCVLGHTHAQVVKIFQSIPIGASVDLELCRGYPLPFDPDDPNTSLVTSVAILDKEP
Chain of MAGI2_5, Q86UL8 (Q86UL8 915-1017): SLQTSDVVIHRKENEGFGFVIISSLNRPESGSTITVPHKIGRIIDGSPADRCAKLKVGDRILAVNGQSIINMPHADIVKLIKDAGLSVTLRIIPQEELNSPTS
Chain of TJP1_2, Q07157 (Q07157 181-274): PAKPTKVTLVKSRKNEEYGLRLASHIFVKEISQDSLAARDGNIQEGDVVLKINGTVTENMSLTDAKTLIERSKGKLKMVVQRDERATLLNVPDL
Chain of Inadl_4, Q8NI35 (Q8NI35 547-651): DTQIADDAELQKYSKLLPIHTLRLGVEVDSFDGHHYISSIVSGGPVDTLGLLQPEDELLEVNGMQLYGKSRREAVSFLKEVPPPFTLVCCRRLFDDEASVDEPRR
Chain of TJP1_3, Q07157 (Q07157 416-512): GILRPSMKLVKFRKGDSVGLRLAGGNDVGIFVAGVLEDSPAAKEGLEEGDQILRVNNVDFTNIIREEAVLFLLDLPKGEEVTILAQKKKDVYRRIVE
Chain of DLG2_2, Q15700 (Q15700 189-283): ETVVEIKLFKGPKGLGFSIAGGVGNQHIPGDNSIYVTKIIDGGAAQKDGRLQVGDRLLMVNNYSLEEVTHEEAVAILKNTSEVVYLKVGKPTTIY
Chain of LAP2, Q96RT1 (Q96RT1 other isoform, or with tags, fused parts or gaps): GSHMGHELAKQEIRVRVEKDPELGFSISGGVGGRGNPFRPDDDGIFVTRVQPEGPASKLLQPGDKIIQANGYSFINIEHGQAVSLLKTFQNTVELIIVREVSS
Chain of Inadl_6, Q8NI35 (Q8NI35 1058-1167): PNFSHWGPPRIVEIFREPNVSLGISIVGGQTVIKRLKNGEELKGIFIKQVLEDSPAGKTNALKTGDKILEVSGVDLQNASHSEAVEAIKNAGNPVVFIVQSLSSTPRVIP

B1: SLC15A5, A6NIM6 (peptide)
chain: SSIDLWETAL
pKd (DLG3_2, Q92796; [1]): 4.28 | pKd (DLG4_1, P78352; [1]): 4.29 | pKd (GRIP1_3, Q9Y3R0; [1]): below the threshold | pKd (RAPGEF6, Q8TEU7; [1]): below the threshold | pKd (LRRC7, Q96NW7; [1]): 4.47 | pKd (DLG1_2, Q12959; [1]): 4.4 | pKd (MAGI2_5, Q86UL8; [1]): 4.97 | pKd (Inadl_4, Q8NI35; [1]): below the threshold | pKd (Inadl_5, Q8NI35; [1]): below the threshold | pKd (MAGI1_2, Q96QZ7; [1]): below the threshold | pKd (GOPC, Q9HD26; [1]): 4.85 | pKd (GRIP1_7, Q9Y3R0; [1]): below the threshold | pKd (MPP7, Q5T2T1; [1]): 3.81 | pKd (GRIP2_3, Q9C0E4; [1]): below the threshold | pKd (PCLO, Q9Y6V0; [1]): below the threshold | pKd (TJP2_1, Q9UDY2; [1]): below the threshold | pKd (Inadl_6, Q8NI35; [1]): 5.69 | pKd (ARHGEF12, Q9NZN5-2; [1]): 5.22 | pKd (MPDZ_5, O75970; [1]): below the threshold | pKd (Inadl_9, Q8NI35; [1]): 3.7 | pKd (GORASP2, Q9H8Y8; [1]): below the threshold | pKd (FRMPD1, Q5SYB0; [1]): below the threshold | pKd (TJP1_2, Q07157; [1]): below the threshold | pKd (LAP2, Q96RT1; [1]): 4.9 | pKd (TJP1_3, Q07157; [1]): below the threshold | pKd (DLG2_2, Q15700; [1]): 3.88 | pKd (FRMPD3, Q5JV73; [1]): 4.31 | pKd (PARD3_3, Q8TEW0; [1]): 4.44

B2: KCNA4, P22459 (peptide)
chain: SNAKAVETDV
pKd (DLG3_2, Q92796; [2]): 5.23 | pKd (DLG4_1, P78352; [2]): 4.67 | pKd (GRIP1_3, Q9Y3R0; [2]): below the threshold | pKd (RAPGEF6, Q8TEU7; [2]): below the threshold | pKd (LRRC7, Q96NW7; [2]): 3.64 | pKd (DLG1_2, Q12959; [2]): 5.42 | pKd (MAGI2_5, Q86UL8; [2]): below the threshold | pKd (Inadl_4, Q8NI35; [2]): below the threshold | pKd (Inadl_5, Q8NI35; [2]): below the threshold | pKd (MAGI1_2, Q96QZ7; [2]): below the threshold | pKd (GOPC, Q9HD26; [2]): below the threshold | pKd (GRIP1_7, Q9Y3R0; [2]): below the threshold | pKd (MPP7, Q5T2T1; [2]): below the threshold | pKd (GRIP2_3, Q9C0E4; [2]): below the threshold | pKd (PCLO, Q9Y6V0; [2]): below the threshold | pKd (TJP2_1, Q9UDY2; [2]): below the threshold | pKd (Inadl_6, Q8NI35; [2]): below the threshold | pKd (ARHGEF12, Q9NZN5-2; [2]): 3.88 | pKd (MPDZ_5, O75970; [2]): below the threshold | pKd (Inadl_9, Q8NI35; [2]): below the threshold | pKd (GORASP2, Q9H8Y8; [2]): below the threshold | pKd (FRMPD1, Q5SYB0; [2]): below the threshold | pKd (TJP1_2, Q07157; [2]): below the threshold | pKd (LAP2, Q96RT1; [2]): 4.32 | pKd (TJP1_3, Q07157; [2]): below the threshold | pKd (DLG2_2, Q15700; [2]): 5 | pKd (FRMPD3, Q5JV73; [2]): below the threshold | pKd (PARD3_3, Q8TEW0; [2]): below the threshold

B3: HPV82-E6, Q9IR59 (peptide)
chain: PPRQRSETQV
pKd (DLG3_2, Q92796; [1]): 4.98 | pKd (DLG4_1, P78352; [1]): 4.65 | pKd (GRIP1_3, Q9Y3R0; [1]): below the threshold | pKd (RAPGEF6, Q8TEU7; [1]): below the threshold | pKd (LRRC7, Q96NW7; [1]): below the threshold | pKd (DLG1_2, Q12959; [1]): 5.02 | pKd (MAGI2_5, Q86UL8; [1]): 4 | pKd (Inadl_4, Q8NI35; [1]): below the threshold | pKd (Inadl_5, Q8NI35; [1]): 3.31 | pKd (MAGI1_2, Q96QZ7; [1]): 5.54 | pKd (GOPC, Q9HD26; [1]): 3.63 | pKd (GRIP1_7, Q9Y3R0; [1]): below the threshold | pKd (MPP7, Q5T2T1; [1]): below the threshold | pKd (GRIP2_3, Q9C0E4; [1]): below the threshold | pKd (PCLO, Q9Y6V0; [1]): below the threshold | pKd (TJP2_1, Q9UDY2; [1]): 3.44 | pKd (Inadl_6, Q8NI35; [1]): below the threshold | pKd (ARHGEF12, Q9NZN5-2; [1]): 3.72 | pKd (MPDZ_5, O75970; [1]): below the threshold | pKd (Inadl_9, Q8NI35; [1]): below the threshold | pKd (GORASP2, Q9H8Y8; [1]): 4.12 | pKd (FRMPD1, Q5SYB0; [1]): below the threshold | pKd (TJP1_2, Q07157; [1]): below the threshold | pKd (LAP2, Q96RT1; [1]): 3.45 | pKd (TJP1_3, Q07157; [1]): below the threshold | pKd (DLG2_2, Q15700; [1]): 4.79 | pKd (FRMPD3, Q5JV73; [1]): below the threshold | pKd (PARD3_3, Q8TEW0; [1]): below the threshold

B4: NHERF1, O14745 (peptide)
chain: SKKNELFSNL
pKd (DLG3_2, Q92796; [3]): below the threshold | pKd (DLG4_1, P78352; [3]): below the threshold | pKd (GRIP1_3, Q9Y3R0; [3]): below the threshold | pKd (RAPGEF6, Q8TEU7; [3]): below the threshold | pKd (LRRC7, Q96NW7; [3]): below the threshold | pKd (DLG1_2, Q12959; [3]): below the threshold | pKd (MAGI2_5, Q86UL8; [3]): below the threshold | pKd (Inadl_4, Q8NI35; [3]): below the threshold | pKd (Inadl_5, Q8NI35; [3]): below the threshold | pKd (MAGI1_2, Q96QZ7; [3]): below the threshold | pKd (GOPC, Q9HD26; [3]): below the threshold | pKd (GRIP1_7, Q9Y3R0; [3]): below the threshold | pKd (MPP7, Q5T2T1; [3]): below the threshold | pKd (GRIP2_3, Q9C0E4; [3]): below the threshold | pKd (PCLO, Q9Y6V0; [3]): below the threshold | pKd (TJP2_1, Q9UDY2; [3]): below the threshold | pKd (Inadl_6, Q8NI35; [3]): below the threshold | pKd (ARHGEF12, Q9NZN5-2; [3]): 3.98 | pKd (MPDZ_5, O75970; [3]): below the threshold | pKd (Inadl_9, Q8NI35; [3]): below the threshold | pKd (GORASP2, Q9H8Y8; [3]): below the threshold | pKd (FRMPD1, Q5SYB0; [3]): below the threshold | pKd (TJP1_2, Q07157; [3]): below the threshold | pKd (LAP2, Q96RT1; [3]): below the threshold | pKd (TJP1_3, Q07157; [3]): below the threshold | pKd (DLG2_2, Q15700; [3]): below the threshold | pKd (FRMPD3, Q5JV73; [3]): below the threshold | pKd (PARD3_3, Q8TEW0; [3]): below the threshold

Reference: article PMC9482650, “Quantitative fragmentomics allow affinity mapping of interactomes” (Nature Communications, 2022)
